The RNAGym collection of RNA variant scans (doi:10.7554/elife.80360)

B1: Twister Ribozyme (parent)
chain: AACACUGCCAAUGCCGGUCCCAAGCCCGGAUAAAAGUGGAGGGGGCGG

Variants of: B1
Assay: self-cleavage, relative activity (ratio to wild type); higher = more cleavage; co-transcriptional
In the case of AACACUGCCAAUGCCGGUCCCCAGCCCGGAUAAAAGUGGAGGGGGCGU, the self-cleavage is reported as 1.03. AACACUGCCAAUGCCGGUCCCCAGCCCGGAUAAAAGUGGAGGGGGCGA gave a self-cleavage of 1.01. AACACUGCCAAUGCCGGUCCCCAGCCCGGAUAAAAGUGGAGGGGGCGC showed a self-cleavage of 1.16. Variant AACACUGCCAAUGCCGGUCCCGAGCCCGGAUAAAAGCGGAGGGGGCGG has a self-cleavage of 0.129. For AACACUGCCAAUGCCGGUCCCGAGCCCGGAUAAAACUGGAGGGGGCGG, the self-cleavage was 0.0743. For AACACUGCCAAUGCCGGUCCCUAGCCCGGAUAAAAGUGGAGGAGGCGG, the self-cleavage was 0.136. For AACACUGCCAAUGCCGGUCCCUAGCCCGGAUAAAAGUGGAGGUGGCGG, the self-cleavage was 0.185. AACACUGCCAAUGCCGGUCCCUAGCCCGGAUAAAAGCGGAGGGGGCGG showed a self-cleavage of 0.236. In the case of AACACUGCCAAUGCCGGUCCCUAGCCCGGAUAAAAGGGGAGGGGGCGG, the self-cleavage is reported as 0.554. AACACUGCCAAUGCCGGUCCCACGCCCGGAUGAAAGUGGAGGGGGCGG showed a self-cleavage of 0.187. In the case of AACACUGCCAAUGCCGGUCCCACGCCCGGAUCAAAGUGGAGGGGGCGG, the self-cleavage is reported as 0.22. In the case of AACACUGCCAAUGCCGGUCCCUAGGCCGGAUAAAAGUGGAGGGGGCGG, the self-cleavage is reported as 0.115. In the case of AACACUGCCAAUGCCGGUCCCUAGACCGGAUAAAAGUGGAGGGGGCGG, the self-cleavage is reported as 0.0894. AACACUGCCAAUGCCGGUCCCGAGCCCGCAUAAAAGUGGAGGGGGCGG showed a self-cleavage of 0.0828. Variant AACACUGCCAAUGCCGGUCCCGAGCCCGAAUAAAAGUGGAGGGGGCGG has a self-cleavage of 0.221. With AACACUGCCAAUGCCGGUCCCUAGCCCGGAUAAAAGUGGAGGGGGAGG the self-cleavage was 0.764. AACACUGCCAAUGCCGGUCCCUAGCCCGGAUAAAAGUGGAGGGGGGGG showed a self-cleavage of 0.816. AACACUGCCAAUGCCGGUCCCUAGCCCGGAUAAAAGUGAAGGGGGCGG showed a self-cleavage of 0.099. Work on AACACUGCCAAUGCCGGUCCCACGGCCGGAUAAAAGUGGAGGGGGCGG yielded a self-cleavage of 0.0881. In the case of AACACUGCCAAUGCCGGUCCCACGACCGGAUAAAAGUGGAGGGGGCGG, the self-cleavage is reported as 0.066. With AACACUGCCAAUGCCGGUCCCUUGCCCGGAUAAAAGUGGAGGGGGCGG the self-cleavage was 0.102. AACACUGCCAAUGCCGGUCCCUCGCCCGGAUAAAAGUGGAGGGGGCGG showed a self-cleavage of 0.0587. For AACACUGCCAAUGCCGGUCCCGAGCCCGGAUAAAUGUGGAGGGGGCGG, the self-cleavage was 0.313. Variant AACACUGCCAAUGCCGGUCCCGAGCCCGGAUAAACGUGGAGGGGGCGG has a self-cleavage of 0.195. Variant AACACUGCCAAUGCCGGUCCCUAGCCCCGAUAAAAGUGGAGGGGGCGG has a self-cleavage of 0.548. Work on AACACUGCCAAUGCCGGUCCCGAGCCCGGAUAAAAGUGGAGGGGGCGU yielded a self-cleavage of 0.334. Variant AACACUGCCAAUGCCGGUCCCGAGCCCGGAUAAAAGUAGAGGGGGCGG has a self-cleavage of 0.106. With AACACUGCCAAUGCCGGUCCCGAGCCCGGAUAAAAGUUGAGGGGGCGG the self-cleavage was 0.122. For AACACUGCCAAUGCCGGUCCCGCGCCCGGAUAAAAGUGGAGGGGGCGG, the self-cleavage was 0.115. AACACUGCCAAUGCCGGUCCCGUGCCCGGAUAAAAGUGGAGGGGGCGG gave a self-cleavage of 0.0557. AACACUGCCAAUGCCGGUCCCUAGCCCGGAUAGAAGUGGAGGGGGCGG gave a self-cleavage of 0.888. Variant AACACUGCCAAUGCCGGUCCCGAGCCCGGAUAAAAGUGGAGGCGGCGG has a self-cleavage of 0.154. With AACACUGCCAAUGCCGGUCCCGAGCCCGGAUAAAAGUGGAGGUGGCGG the self-cleavage was 0.101. AACACUGCCAAUGCCGGUCCCGAGCCCGGAUAACAGUGGAGGGGGCGG gave a self-cleavage of 0.0775. AACACUGCCAAUGCCGGUCCCCAGCCCGGAAAAAAGUGGAGGGGGCGG gave a self-cleavage of 0.54. Variant AACACUGCCAAUGCCGGUCCCCAGCCCGGACAAAAGUGGAGGGGGCGG has a self-cleavage of 1.12. With AACACUGCCAAUGCCGGUCCCUAGCCCGGAUAAAACUGGAGGGGGCGG the self-cleavage was 0.19. For AACACUGCCAAUGCCGGUCCCUAGCCCGGAUAAAAAUGGAGGGGGCGG, the self-cleavage was 0.179. Variant AACACUGCCAAUGCCGGUCCCACGCCCGGAUAAAAGUGGGGGGGGCGG has a self-cleavage of 0.128. AACACUGCCAAUGCCGGUCCCACGCCCGGAUAAAAGUGGUGGGGGCGG gave a self-cleavage of 0.146. In the case of AACACUGCCAAUGCCGGUCCCACGCCCGGAUAAAAGUGGCGGGGGCGG, the self-cleavage is reported as 0.0967. With AACACUGCCAAUGCCGGUCCCACGCCCGGAUAAAUGUGGAGGGGGCGG the self-cleavage was 0.404. For AACACUGCCAAUGCCGGUCCCACGCCCGGAUAAUAGUGGAGGGGGCGG, the self-cleavage was 0.0811. Work on AACACUGCCAAUGCCGGUCCCACGCCCGGAUAACAGUGGAGGGGGCGG yielded a self-cleavage of 0.161. Variant AACACUGCCAAUGCCGGUCCCGAGCCUGGAUAAAAGUGGAGGGGGCGG has a self-cleavage of 0.111. With AACACUGCCAAUGCCGGUCCCGAGCCGGGAUAAAAGUGGAGGGGGCGG the self-cleavage was 0.084. For AACACUGCCAAUGCCGGUCCCUAGCCCGGAUAAAAGUUGAGGGGGCGG, the self-cleavage was 0.353. For AACACUGCCAAUGCCGGUCCCUAGCCCGGAUAAAAGUAGAGGGGGCGG, the self-cleavage was 0.843. In the case of AACACUGCCAAUGCCGGUCCCUAGCCCGGAUAAAAGUGGAGGGGGCUG, the self-cleavage is reported as 0.67. Variant AACACUGCCAAUGCCGGUCCCUAGCCCGGAUAAACGUGGAGGGGGCGG has a self-cleavage of 0.778. AACACUGCCAAUGCCGGUCCCUAGCCCGGAUAAAUGUGGAGGGGGCGG gave a self-cleavage of 0.659. AACACUGCCAAUGCCGGUCCCUAUCCCGGAUAAAAGUGGAGGGGGCGG showed a self-cleavage of 0.11. Work on AACACUGCCAAUGCCGGUCCCUACCCCGGAUAAAAGUGGAGGGGGCGG yielded a self-cleavage of 0.0864. Work on AACACUGCCAAUGCCGGUCCCGAGCCCGGAUACAAGUGGAGGGGGCGG yielded a self-cleavage of 0.147.
